How the values were obtained:
[1] = target: human GARP/TGFβ1 complex (protein used in ELISA and Octet) (human) (UniProt Q14392); test: Octet
[2] = target: human GARP/latent TGFβ1 complex on cells (human) (UniProt Q14392); test: flow cytometry on human GARP/latent TGFβ1 transfected CHO-S cells, goat anti-human IgG(H+L) FITC
[3] = target: human GARP protein not in any GARP/TGFβ1 complex (protein used in ELISA and Octet) (human) (UniProt Q14392); test: Octet
human GARP protein not in any GARP/TGFβ1 complex (protein used in ELISA and Octet) (human), sequence (Q14392 20-627 limits assumed, one chain of several): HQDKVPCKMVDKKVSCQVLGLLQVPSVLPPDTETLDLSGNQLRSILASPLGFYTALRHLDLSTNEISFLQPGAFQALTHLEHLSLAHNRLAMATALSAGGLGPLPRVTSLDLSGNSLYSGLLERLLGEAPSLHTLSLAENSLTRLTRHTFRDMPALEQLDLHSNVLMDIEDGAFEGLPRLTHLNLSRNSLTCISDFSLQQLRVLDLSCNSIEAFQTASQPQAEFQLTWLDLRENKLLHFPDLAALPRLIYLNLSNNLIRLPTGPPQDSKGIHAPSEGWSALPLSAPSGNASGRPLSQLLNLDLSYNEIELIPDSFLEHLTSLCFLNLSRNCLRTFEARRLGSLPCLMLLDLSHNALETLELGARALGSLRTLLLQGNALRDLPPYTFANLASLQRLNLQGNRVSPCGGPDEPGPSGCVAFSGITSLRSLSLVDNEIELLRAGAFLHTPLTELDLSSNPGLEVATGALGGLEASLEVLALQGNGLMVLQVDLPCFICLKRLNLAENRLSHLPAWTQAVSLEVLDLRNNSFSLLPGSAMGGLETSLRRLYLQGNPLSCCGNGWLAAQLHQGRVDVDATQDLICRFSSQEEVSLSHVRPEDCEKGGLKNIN

Kd [1]	EC50 (read off the curve) [2]	Kd [3]	Substance
0.428 nM	0.3 µg/mL		GARP ref. Ab1, an ABBV-151 analog (antibody)
4.12 nM		2.02 nM	GARP ref. Ab2, a DS-1005a analog (antibody)
